Where no end group is shown, it is not given here. The star is where a group is joined. Biotin = O=C1N[C@H]2[C@H](CS[C@H]2CCCCC(=O)*)N1

This passage reports binding result, koff and Kd results from PMC12141489 (Scientific Reports, 2025).

The target of assay [1] is myc-tagged human TRPM4 on HEK 293 cells (Homo sapiens, UniProt Q8TD43). As to the kind of experiment: immunostaining of cells or tissue.
For assay [2], the target named is Ab2 (humanized antibody) (human). As to the kind of experiment: SPR. For orientation: In SPR one partner is held on a chip, and binding of the other changes the refractive index at the surface.
Assay [3] addresses Ab4 (humanized antibody) (human). As to the kind of experiment: SPR.

Chain of myc-tagged human TRPM4 on HEK 293 cells (Q8TD43 whole entry): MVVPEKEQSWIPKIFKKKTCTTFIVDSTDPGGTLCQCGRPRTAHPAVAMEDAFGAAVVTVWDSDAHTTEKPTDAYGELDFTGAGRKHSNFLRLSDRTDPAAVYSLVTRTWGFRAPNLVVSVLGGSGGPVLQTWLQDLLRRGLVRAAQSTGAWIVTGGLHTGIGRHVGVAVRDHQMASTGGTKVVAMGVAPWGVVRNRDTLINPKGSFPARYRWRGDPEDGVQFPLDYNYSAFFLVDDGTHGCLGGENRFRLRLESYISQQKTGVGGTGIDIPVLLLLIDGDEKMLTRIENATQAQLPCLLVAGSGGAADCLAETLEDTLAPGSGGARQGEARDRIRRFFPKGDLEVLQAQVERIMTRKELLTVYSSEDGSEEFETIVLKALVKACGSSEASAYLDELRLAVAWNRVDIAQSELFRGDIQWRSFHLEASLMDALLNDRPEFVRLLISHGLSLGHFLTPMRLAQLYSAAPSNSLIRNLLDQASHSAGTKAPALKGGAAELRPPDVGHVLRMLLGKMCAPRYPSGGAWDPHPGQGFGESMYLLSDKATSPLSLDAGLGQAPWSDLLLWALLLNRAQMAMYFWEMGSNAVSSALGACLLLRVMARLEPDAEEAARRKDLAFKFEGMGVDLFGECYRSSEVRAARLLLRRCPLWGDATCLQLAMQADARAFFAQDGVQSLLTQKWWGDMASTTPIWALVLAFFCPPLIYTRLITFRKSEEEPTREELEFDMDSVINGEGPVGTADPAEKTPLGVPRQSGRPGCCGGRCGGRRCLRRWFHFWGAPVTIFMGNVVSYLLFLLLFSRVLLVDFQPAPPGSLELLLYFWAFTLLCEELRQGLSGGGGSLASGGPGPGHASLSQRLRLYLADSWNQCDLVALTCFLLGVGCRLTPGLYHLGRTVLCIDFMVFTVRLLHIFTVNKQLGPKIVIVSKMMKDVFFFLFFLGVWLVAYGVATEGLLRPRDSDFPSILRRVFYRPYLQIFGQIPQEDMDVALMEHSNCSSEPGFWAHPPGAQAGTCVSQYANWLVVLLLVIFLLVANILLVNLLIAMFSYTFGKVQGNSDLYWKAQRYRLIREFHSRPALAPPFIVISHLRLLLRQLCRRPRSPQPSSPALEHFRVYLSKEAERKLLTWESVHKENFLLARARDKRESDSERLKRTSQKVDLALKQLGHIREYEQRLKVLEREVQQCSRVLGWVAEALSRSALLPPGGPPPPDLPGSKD

B1: Ab1 (chimeric antibody) (antibody, V domains shown)
VH: QVQLQESGPGLVKPSQSLSLTCTVTGYSITSDYAWNWIRQFPGNKLQWMGYLSYSGVTSYNPSLKGRISITRDTSKNQFFLQLSSVTPEDTATYYCARKGTYYRYEGSYWYFDVWGAGTTVTVSS
VL: DIQMNQSPSSLSASLGDTITITCHANQNIDVWLSWYQQKPGNVPKLLIYKTSNLHTGVPSRFSGSGSGTDFTLTISSLQPEDIATYYCQQGQSYPLTFGGGTKLEIK
For the molecule B1, the binding result in assay [1] is reported as “binds”.

Molecule RDSDSNCSSEPGFWAHPPGAQK(Biotin) [Peptide-biotin (…{Lys(biotin)})] gave a koff in assay [2] of 0.00166 s⁻¹. The same molecule gave a Kd in assay [3] of 7 nM.

As a reminder, the koff is a measure of how fast the partners let go of each other. Low values mean slow dissociation, high ones fast dissociation. Broadly, the Kd is the constant that tells how readily two partners part at equilibrium. High values mean weaker binding, low ones tighter binding.
